For assay [1], the target named is T1, mPDGFRβ/Fc (mouse, UniProt P05622 32-530, limits assumed).
T1 construct: The methods say 'mPDGFRβ' for ELISA plates and the BIAcore chip; also called murine PDGFRβ; mouse PDGFRβ; not shown: Fc part; detected with a goat anti-human Fc antibody
T1 sequence (looked up): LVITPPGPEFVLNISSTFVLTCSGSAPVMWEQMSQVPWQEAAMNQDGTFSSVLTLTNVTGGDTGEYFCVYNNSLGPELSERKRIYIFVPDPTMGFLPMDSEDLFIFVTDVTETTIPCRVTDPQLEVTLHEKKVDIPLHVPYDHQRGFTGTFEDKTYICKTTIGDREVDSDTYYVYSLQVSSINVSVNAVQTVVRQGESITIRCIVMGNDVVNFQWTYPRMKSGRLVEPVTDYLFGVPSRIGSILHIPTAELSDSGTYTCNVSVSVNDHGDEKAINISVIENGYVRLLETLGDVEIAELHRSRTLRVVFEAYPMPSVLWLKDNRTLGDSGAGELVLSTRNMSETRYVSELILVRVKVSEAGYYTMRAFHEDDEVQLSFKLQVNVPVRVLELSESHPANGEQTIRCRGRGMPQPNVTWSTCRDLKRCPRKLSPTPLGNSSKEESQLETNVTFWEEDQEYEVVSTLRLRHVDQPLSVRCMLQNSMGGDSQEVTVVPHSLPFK
Briefly: ELISA on mPDGFRβ/Fc-coated plate (1 µg/ml), detection with goat anti-human-κ antibody-HRP. On the procedure: (§1) Plate-bound antibodies were detected with a goat anti-human-κ antibody-HRP. […] IMC-1121 is an antibody directed against human VEGFR2. Data represent the mean±SD of triplicate samples.
(§2) Quantitative receptor binding and blocking assays. […] The plates were then incubated at RT for an additional 1 h with a goat anti-human-κ antibody-horse radish peroxidase (HRP) conjugate (Jackson ImmunoResearch, West Grove, Pa.). The plates were washed and developed as previously described (Lu, D. et al., 2002; Zhu, Z. et al., 1998). […] After washing 3 times with PBST, the plates were incubated with a goat anti-human Fc antibody-HRP conjugate (Jackson ImmunoResearch) for 1 h, and developed as described (Lu, D. et al., 2002; Zhu, Z. et al., 1998; Loizos, N. et al., 2005).

Assay [2] deals with T2, human PDGFRβ (soluble recombinant protein) (human, UniProt P09619 33-530, limits assumed).
T2 construct: the construct is not described; also called hPDGFRβ
Briefly: ELISA, panel 'BINDING TO hPDGFRβ'.

Assay [3] deals with T3, h5β (human, UniProt P09619 33-530, limits assumed).
T3 construct: domain: domains 1-5 (read from the label); read as human PDGFRβ with all five domains
Description: ELISA (OD450), panel '2C5 BINDING TO PDGFRβ/α CHIMERAS'; axis 'CO…ON (nM)', titrated species not stated.

For assay [4], the target named is T3, h5β. Briefly: ELISA (OD450), panel '2C5 BINDING TO hPDGFRβ DELETIONS'; axis 'CO…ON (nM)', titrated species not stated. Background: An ELISA detects its analyte on a solid surface through an enzyme-linked reagent.
The target of assay [5] is T4, β1-2 (shorter version of PDGFRβ, D1D2).
T4 construct: domain: D1D2
The description is as above.

Assay [6] addresses T5, β1-3 (shorter version of PDGFRβ, D1D2D3).
T5 construct: domain: D1D2D3
Described as above.

Assay [7] has as its target T1, mPDGFRβ/Fc. Description: ELISA, panel 'BINDING TO mPDGFRβ'.
The target of assay [8] is T1, mPDGFRβ/Fc. Description: blocking of PDGF-BB binding to mPDGFRβ (FIG. 6).
In assay [9] the target is T2, human PDGFRβ (soluble recombinant …). Description: blocking of PDGF-BB binding to hPDGFRβ (FIG. 6).
The target of assay [10] is mouse PDGFRβ on cells (NIH/3T3, D122, 4T1, B16) (mouse, UniProt P05622 32-1098). Briefly: cell-based or functional assay.
The target of assay [11] is human PDGFRβ, cell-surface-expressed receptor on human tumor cell lines (human, UniProt P09619 33-1106). Description: cell-based or functional assay.
Assay [12] has as its target T1, mPDGFRβ/Fc. Description: blocking ELISA, panel 'BLOCKING PDGF-BB BINDING TO mPDGFRβ'; blocked ligand PDGF-BB.
Assay [13] concerns the target T1, mPDGFRβ/Fc. Briefly: blocking ELISA: antibody mixed with mPDGFRβ/Fc, PDGF-BB-coated plates (FIG. 1B). On the procedure:
as §1, §2

Assay [14] deals with T1, mPDGFRβ/Fc. Briefly: SPR (BIAcore), mPDGFRβ immobilized. As for the experimental part:
Antibody affinity determination. […] Sensorgrams were obtained at each concentration and were evaluated using the program, BIA Evaluation 2.0. The affinity constant, Kd, was calculated from the ratio of dissociation rate (koff)/association rate (kₒₙ) (Lu, D. et al., 2002; Zhu, Z. et al., 1998; Loizos, N. et al., 2005).
Background: Surface plasmon resonance follows binding to a sensor surface in real time, without labels.

Assay [15] concerns the target T1, mPDGFRβ/Fc. Briefly: direct binding ELISA on mPDGFRβ/Fc-coated plates (printed as IC50; FIG. 1A). On the procedure:
as §1, §2

Assay [16] has as its target T1, mPDGFRβ/Fc. Description: blocking ELISA: Fab mixed with mPDGFRβ/Fc, PDGF-BB-coated plates (FIG. 1B). As for the experimental part: as §1, §2

T2 sequence (P09619 33-530 limits assumed): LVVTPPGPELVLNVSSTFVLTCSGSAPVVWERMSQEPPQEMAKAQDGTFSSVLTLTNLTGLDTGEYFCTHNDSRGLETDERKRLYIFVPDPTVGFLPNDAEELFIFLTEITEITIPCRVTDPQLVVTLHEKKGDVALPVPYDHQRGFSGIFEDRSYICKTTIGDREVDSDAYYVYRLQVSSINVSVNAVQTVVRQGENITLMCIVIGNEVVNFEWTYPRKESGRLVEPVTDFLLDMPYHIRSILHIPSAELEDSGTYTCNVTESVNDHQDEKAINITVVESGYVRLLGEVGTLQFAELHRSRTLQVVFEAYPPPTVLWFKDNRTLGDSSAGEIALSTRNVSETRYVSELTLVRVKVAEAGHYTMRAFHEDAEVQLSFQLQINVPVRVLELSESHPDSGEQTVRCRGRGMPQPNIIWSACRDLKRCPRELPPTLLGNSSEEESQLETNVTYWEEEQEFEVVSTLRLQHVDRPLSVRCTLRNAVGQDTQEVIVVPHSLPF
T3 sequence (P09619 33-530 limits assumed): as above
Sequence of human PDGFRβ, cell-surface-expressed receptor on human tumor cell lines (P09619 33-1106): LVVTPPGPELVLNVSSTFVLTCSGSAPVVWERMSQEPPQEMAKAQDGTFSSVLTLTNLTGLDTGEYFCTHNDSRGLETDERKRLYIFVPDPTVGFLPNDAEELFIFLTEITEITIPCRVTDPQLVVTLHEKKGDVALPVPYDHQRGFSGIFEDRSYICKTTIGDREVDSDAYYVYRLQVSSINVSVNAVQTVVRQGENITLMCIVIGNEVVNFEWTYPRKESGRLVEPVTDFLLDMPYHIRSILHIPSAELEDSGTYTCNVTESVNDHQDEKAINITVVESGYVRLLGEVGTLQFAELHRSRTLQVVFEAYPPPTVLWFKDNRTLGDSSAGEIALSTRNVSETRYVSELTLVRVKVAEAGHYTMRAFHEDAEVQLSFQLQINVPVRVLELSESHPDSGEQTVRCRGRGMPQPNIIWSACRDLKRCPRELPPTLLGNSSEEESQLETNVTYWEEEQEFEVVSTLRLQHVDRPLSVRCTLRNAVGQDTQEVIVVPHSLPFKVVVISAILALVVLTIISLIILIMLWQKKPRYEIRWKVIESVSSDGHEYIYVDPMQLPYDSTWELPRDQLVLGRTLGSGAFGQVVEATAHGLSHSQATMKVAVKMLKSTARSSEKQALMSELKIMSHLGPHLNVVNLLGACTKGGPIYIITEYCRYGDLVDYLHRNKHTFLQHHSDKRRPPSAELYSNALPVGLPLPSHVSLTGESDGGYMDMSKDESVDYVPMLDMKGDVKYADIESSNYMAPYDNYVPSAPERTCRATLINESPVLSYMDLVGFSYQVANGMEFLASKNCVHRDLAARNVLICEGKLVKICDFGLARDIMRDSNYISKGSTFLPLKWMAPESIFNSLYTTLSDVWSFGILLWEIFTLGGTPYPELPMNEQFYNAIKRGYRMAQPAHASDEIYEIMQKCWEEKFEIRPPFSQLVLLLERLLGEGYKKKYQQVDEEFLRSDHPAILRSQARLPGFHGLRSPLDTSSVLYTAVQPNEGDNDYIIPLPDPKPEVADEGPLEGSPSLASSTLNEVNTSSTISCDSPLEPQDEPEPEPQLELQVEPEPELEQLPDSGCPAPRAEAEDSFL

B1: 1121 IgG (antibody, V domains shown)
VH: EVQLVQSGGGLVKPGGSLRLSCAASGFTFSSYSMNWVRQAPGKGLEWVSSISSSSSYIYYADSVKGRFTISRDNAKNSLYLQMNSLRAEDTAVYYCARVTDAFDIWGQGTMVTVSS
VL: DIQMTQSPSSVSASIGDRVTITCRASQGIDNWLGWYQQKPGKAPKLLIYDASNLDTGVPSRFSGSGSGTYFTLTISSLQAEDFAVYFCQQAKAFPPTFGGGTKVDIK
notes: The sheet prints '1121 IgG'; also called IMC-1121; antibody directed against human VEGFR2
In the case of B1, the binding result in the assay with mPDGFRβ/Fc [1] is recorded as “no binding (tested: 10 nM)”.

B2: 2C5 (human anti-PDGFRβ antibody) (antibody, V domains shown)
VH: QVQLVQSGAEVKKPGSSVKVSCKASGGTFSSYAISWVRQAPGQGLEWMGRIIPILGIANYAQKFQGRVTITADKSTSTAYMELSSLRSEDTAVYYCARDMGSRNYYYFYWGQGTLVTVSS
VL: EIVLTQSPATLSLSPGERATLSCRASQSVGRYLAWYQQKPGQAPRLLIYGASNRATGIPARFSGSGSGTDFTLTISSLEPEDFAVYYCQQRSNWPLTFGGGTKVEIKR
notes: also called 2C5 antibody; anti-PDGFRβ antibody 2C5
As usually defined, the EC50 (read off the curve) is the concentration that produces a half-maximal response. Broadly, the IC50 is the concentration that gives 50% inhibition. B2: the “EC50 (read off the curve)” value was around 0.1 nM in assay [2]; around 0.05 nM with h5β [3]; around 0.06 nM in the assay with h5β [4]; around 0.1 nM in [5]; around 0.07 nM in assay [6]; around 0.1 nM in the assay with mPDGFRβ/Fc [7]. For the same molecule, the IC50 in the assay with mPDGFRβ/Fc [8] turned out to be 0.35 nM; in assay [9], 0.55 nM. Moreover, the “PDGFRβ phosphorylation in mouse NIH/3T3 and D122 cell lines, IC50” value in [10] was below 1.8 µg/mL. In [11], the “PDGFRβ phosphorylation in human Caki-1 tumor cells, IC50” value is below 1.8 µg/mL.

B3: 1B3 IgG (full-length human anti-mouse PDGFRβ antibody) (antibody, V domains shown)
VH: QVQLQESGGGLVKPGGSLRLSCAASGFTFSSYSMNWVRQAPGKGLEWVSSISSSSSYIYYADSVKGRFTISRDNSKNTLYLQMNSLRAEDTAVYYCAKGGRPLLVFDFWGQGTLVTVS
VL: EIVMTQSPGTLSLSPGERATLSCRASQSVSSSYLAWYQQKPGQAPRLLIYDASKRATGIPARFSGSGSGTDFTLTISTLESEDSAVYYCQQRGYWPPITFGQGTRLEIKR
notes: also called 1B3 antibody; anti-mPDGFRβ antibody 1B3
For orientation: Kd means the equilibrium constant for the complex coming apart. Read a low Kd as a tighter complex. What is called EC50 is the concentration that produces a half-maximal response. A low value points to a more potent agent. On to B3, for which the IC50 with mPDGFRβ/Fc [12] came to 0.37 nM; in the assay with mPDGFRβ/Fc [13], 1.2 nM. The binding result in [2] is “no binding (tested: about 1e-8 M)”. For the same molecule, in the assay with mPDGFRβ/Fc [14], binding was put at a Kd of 0.09 nM. In addition, the “fold increase in affinity over its Fab form” value with mPDGFRβ/Fc [14] was around 57 times. Besides, the “EC50 (read off the curve)” value in the assay with mPDGFRβ/Fc [7] is around 0.07 nM. In the assay with mPDGFRβ/Fc [15], this molecule registered an EC50 of 0.34 nM.

B4: 1B3 Fab (Fab, V domains shown)
VH: B3 VH
VL: B3 VL
notes: also called 1B3 Fab fragment; clone 1B3
Take B4: in the assay with mPDGFRβ/Fc [14], the Kd stood at 5.1 nM. For the same molecule, the IC50 with mPDGFRβ/Fc [16] was 4.1 nM. Besides, the EC50 in the assay with mPDGFRβ/Fc [15] worked out at 1.3 nM.

For the origin of these results see patent US20090053241A1 (Eli Lilly, published 2009).
